Here are results for 1 molecule from patent US20250296994A1 (SYSMEX, published 2025).

In experiment [1] the target is T1, antigen peptide P3 (BSA conjugate in the primary screening) (human, NH2-PEG6 at the N-terminus; C-terminal amide; disulfide bond between the two cysteine residues; carrier protein (BSA in the screening ELISA, KLH for immunization) conjugated to the N-terminal amino …).
T1 peptide: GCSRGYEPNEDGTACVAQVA
Nature of the experiment: primary screening ELISA, BSA-conjugated antigen peptide immobilized, hybridoma culture supernatant. The method, then: In order to select hybridomas producing monoclonal antibodies reactive to the antigen peptide, the culture supernatant of each hybridoma was measured by ELISA. In the primary screening, as a positive antigen, a peptide to which BSA was conjugated was used as a carrier protein for each of the antigen peptides P1, P2 and P3. Specific operations were as follows.
The positive antigen was diluted with PBS to a concentration of 1 μg/mL. Positive antigen (50 μL) was added to each well of a 96 well plate. Then, the plate was incubated at 4° C. for 17 hours, and a positive antigen was immobilized in the well to obtain an antigen immobilized plate. Each well was washed three times with PBS (250 μL). To each well was added a blocking buffer (250 μL, 0.5% skim milk/PBS) and blocked at room temperature for 1 hour. Culture supernatant (50 μL) of each hybridoma was added to each well, and the cells were incubated at room temperature for 1 hour. Each well was washed three times with PBS (250 μL). An ALP-labeled anti-mouse IgG goat antibody (SBI, product number 1030-04) was diluted 1:2,500 with PBS. A solution (50 μL) of this labeled antibody was added to each well, and the well was incubated at room temperature for 30 minutes. Each well was washed three times with PBS (250 μL). […] The plate was set in a microplate reader, and the emission intensity was measured for each well.
For orientation: ELISA stands for enzyme-linked immunosorbent assay.

Experiment [2] concerns the target T2, recombinant Crtac1B fragment #7 (negative control) (human, UniProt Q9NQ79 28-606).
T2 construct: also called fCrtac1B (1-606)
T2 sequence: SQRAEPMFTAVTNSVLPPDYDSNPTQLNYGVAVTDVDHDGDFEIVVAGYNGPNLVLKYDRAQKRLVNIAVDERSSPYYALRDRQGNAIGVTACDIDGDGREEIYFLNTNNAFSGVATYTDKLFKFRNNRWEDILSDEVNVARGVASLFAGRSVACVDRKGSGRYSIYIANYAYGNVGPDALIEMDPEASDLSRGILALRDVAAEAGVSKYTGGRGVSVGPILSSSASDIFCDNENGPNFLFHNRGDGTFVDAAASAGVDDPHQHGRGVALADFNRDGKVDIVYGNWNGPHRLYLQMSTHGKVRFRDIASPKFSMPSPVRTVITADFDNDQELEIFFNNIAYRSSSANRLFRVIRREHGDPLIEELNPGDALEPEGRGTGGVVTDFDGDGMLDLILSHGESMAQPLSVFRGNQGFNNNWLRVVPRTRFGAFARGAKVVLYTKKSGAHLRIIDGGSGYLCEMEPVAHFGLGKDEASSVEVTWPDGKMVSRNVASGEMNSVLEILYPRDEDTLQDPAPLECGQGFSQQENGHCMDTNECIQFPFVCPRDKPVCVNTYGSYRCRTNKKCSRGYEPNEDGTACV
Nature of the experiment: antigen immobilized ELISA, hybridoma culture supernatant, color development at 655 nm same as plate without antigen. The method, then:
A positive antigen (50 μL) and a negative control (50 μL) were added to each well of a 96 well plate, respectively. Then, the plate was incubated at 4° C. overnight, and the positive antigen and the negative control were immobilized in the well to obtain an antigen immobilized plate. Each well was washed twice with a washing solution (250 μL, 0.05% Tween (registered trademark) 20/20 mM potassium phosphate buffer (pH 7.4), 150 mM NaCl). To each well was added a blocking buffer (250 μL, 5% skim milk/20 mM potassium phosphate buffer (pH 7.4), 150 mM NaCl), and blocked at room temperature for 90 minutes. Culture supernatant (50 μL) of each hybridoma selected by primary screening was added to each well, and the cells were incubated at 37° C. for 1 hour. Each well was washed three times with a washing solution (250 μL). The HRP-labeled anti-mouse IgG antibody (MBL, product number 330) was diluted 1:1,000 with dilution buffer II (1% skim milk/20 mM potassium phosphate buffer (pH 7.4), 150 mM NaCl). A solution (50 μL) of this labeled antibody was added to each well, and the well was incubated at 37° C. for 1 hour. Each well was washed five times with a washing solution (250 μL). Chemical chromogenic substrate solutions (Bio-Rad, TMB Peroxidase EIA Substrate Kit) were added to respective wells at 50 μL, and the plate was allowed to stand at room temperature under shading for 30 minutes. The plate was set in a microplate reader (Thermo Fisher Scientific, Varioskan (registered trademark) Flash), and the color development intensity at 655 nm was measured for each well.
Reactivity of the monoclonal antibody contained in the culture supernatant of the hybridomas of clones 1B4 and 15C2 to the antigen was confirmed by ELISA using the 7 recombinant Crtac1B fragments described above. A specific operation was the same as that of the antigen immobilized ELISA method of Example 1. For comparison, ELISA was performed in the same manner using a 96 well plate in which no antigen was immobilized.
In addition, as to these monoclonal antibodies, the color development intensity when the recombinant Crtac1B fragments of #6 and #7 were used was substantially the same as that when a plate without immobilizing the antigen was used.

B1: 15C2 antibody (monoclonal antibody derived from the hybridoma of clone 15C2) (antibody, mouse IgG1, kappa, V domains shown)
VH: EVQLQQFGAELVKPGASVKISCKASGYTFTDYNMDWVKQSHGKSLEWIGDINPNYDSSSYNQKFKGKATLTVDKSSSTAYMELRSLTSEDTAVYYCTRSGGTYWGQGTLVTVSA
VL: DIQMNQSPSSLSASLGDTITITCHASQNINVWLSWYQQKPGNIPKLLIYKASNLHTGVPSRFSGSGSGTGFSLTISSLQPEDIATYYCQQAQSYPRTFGGGTKLEIKR
notes: Mouse IgG1; Used as hybridoma culture supernatant (ELISA) or purified from supernatant (IB, IP); also called anti-Crtac1B antibody; antibody of the present embodiment
As to B1, the binding result in experiment [1] is on record as “binds”; in experiment [2], “no binding”.
